In US20220195067A1 (LAMKAP BIO BETA, published 2022):

T1: human CEACAM5 on CEACAM5-expressing cancer cell lines (human, UniProt P06731 35-685)
T1 construct: whole, on cells; also called CEACAM5 on SK-CO-1, MKN-45, HPAF-II, SNU-C1, Ls174T, LoVo cells
T1 sequence (looked up): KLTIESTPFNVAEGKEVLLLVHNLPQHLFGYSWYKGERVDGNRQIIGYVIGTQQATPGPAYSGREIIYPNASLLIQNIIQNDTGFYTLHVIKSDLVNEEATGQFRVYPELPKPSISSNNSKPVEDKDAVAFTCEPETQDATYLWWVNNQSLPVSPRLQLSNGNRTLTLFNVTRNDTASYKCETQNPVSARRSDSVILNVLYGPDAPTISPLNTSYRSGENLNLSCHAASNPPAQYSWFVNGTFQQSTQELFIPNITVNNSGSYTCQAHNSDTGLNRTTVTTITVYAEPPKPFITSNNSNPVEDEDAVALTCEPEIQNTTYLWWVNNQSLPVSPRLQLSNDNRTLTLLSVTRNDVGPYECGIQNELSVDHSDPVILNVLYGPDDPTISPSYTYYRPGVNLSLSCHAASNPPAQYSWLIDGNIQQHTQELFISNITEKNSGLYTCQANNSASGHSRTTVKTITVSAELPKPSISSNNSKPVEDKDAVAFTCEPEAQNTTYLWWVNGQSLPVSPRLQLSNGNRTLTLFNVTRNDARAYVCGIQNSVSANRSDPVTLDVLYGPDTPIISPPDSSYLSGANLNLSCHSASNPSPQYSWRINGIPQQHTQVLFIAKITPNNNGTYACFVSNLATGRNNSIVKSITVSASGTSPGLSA

T2: his-tagged recombinant huCEACAM3 (R&D Systems, #9868-CM) (human, UniProt P40198 35-155)
T2 construct: Bought reagent; also called rec. hCEACAM3; recombinant soluble human CEACAM3; not shown: His tag
T2 sequence (looked up): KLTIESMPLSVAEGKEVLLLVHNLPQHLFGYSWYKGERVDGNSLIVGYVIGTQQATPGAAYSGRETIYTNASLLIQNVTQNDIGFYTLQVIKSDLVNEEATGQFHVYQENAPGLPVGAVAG


Legend:
[1] = molecular target: T1, human CEACAM5 on CEACAM5-expressing …; experiment: flow cytometry on MKN-45 cells (carry CEACAM5 and CD47), PE anti-human IgG Fc
Experimental: (§1) The binding of CD47×CEACAM5 bispecific antibodies was tested on CEACAM5-expressing human gastric adenocarcinoma cells (e.g. MKN-45), on CEACAM5-expressing human colorectal cancer cells (SK-CO-1, SNU-C1, Ls174T, and LoVo), and on CEACAM5-expressing pancreatic adenocarcinoma cells (HPAF-II).
(§2) Cells were harvested, counted, checked for viability and resuspended at 3×10⁶ cells/ml in FACS buffer (PBS 2% BSA, 0.1% NaN3). 100 μl of the cell suspension was distributed in V-bottom 96-well plates (3×10⁵ cells/well). The supernatant was removed by centrifugation 3 minutes at 4° C., 1300 rpm. Increasing concentrations of the antibody according to the invention were then added into the wells and incubated for 15 minutes at 4° C. Cells were washed twice with cold FACS buffer and re-incubated for further 15 minutes at 4° C. with the PE (R-phycoerythrin)-conjugated mouse anti-human IgG Fc secondary antibody (SouthernBiotech, pre-diluted 1:100 in FACS buffer). Cells were washed twice with cold FACS buffer and resuspended in 300 μl FACS buffer with 1:15000-diluted SytoxBlue (Life Technologies). Fluorescence, specifically mean fluorescence […] (MFI), was determined using a Cytoflex […] flow cytometer. Binding curves and […] and Emax values were obtained and calculated using GraphPad Prism7 software.

[2] = molecular target: T1, human CEACAM5 on CEACAM5-expressing …; experiment: flow cytometry on SNU-C1 cells (carry CEACAM5 and CD47), PE anti-human IgG Fc
Experimental: as §1, §2

[3] = molecular target: T1, human CEACAM5 on CEACAM5-expressing …; experiment: flow cytometry on HPAF-II cells (carry CEACAM5 and CD47), PE anti-human IgG Fc
Experimental: as §1, §2

[4] = molecular target: T2, his-tagged recombinant huCEACAM3 (R&D …); experiment: BLI (Octet), KD on CEACAM3 against KD on CEACAM5
Experimental: The affinity of the anti-human CEACAM5 arm of the CD47×CEACAM5 bispecific antibodies of the invention for recombinant soluble human CEACAM5 was determined using the Bio-Layer Interferometry (BLI) technology. An OctetRED96 instrument and Protein A biosensors were used (Sartorius). The measurement was performed at 30° C. After hydration, pre-conditioning and a baseline step in Kinetic buffer (PBS, 0.002% Tween 20, 0.01% BSA, Kathon; Sartorius), biosensors were loaded for 5 min with the κλ body at 0.5 μg/mL in Kinetic buffer. Then, biosensors were dipped into a serial dilution of recombinant human CEACAM5 Extra Cellular Domain (ECD) soluble protein (produced in house), starting at 50 nM with a 2× dilution factor. The association and dissociation phases were monitored for 600 seconds each. Biosensors were regenerated using 10 mM glycine pH 1.7. A standard acquisition rate was applied (5.0 Hz, averaging by 20). Curves were processed with a reference well subtraction, a Y alignment on the baseline, without interstep correction. The affinity was measured applying a 1:1 global fitting model on the full association and dissociation steps. The binding affinity (KD) of the bispecific antibodies of the invention to recombinant human CD47 was determined by the same experimental procedure.
The affinity of the anti-human CEACAM5 arms of the CD47×CEACAM5 bispecific antibodies of the invention for recombinant soluble human CEACAM3 was determined using the Bio-Layer Interferometry (BLI) technology and an OctetRED96 instrument. HIS1K biosensors (Sartorius), loaded with an anti-His tag antibody, were used to capture his-tagged recombinant huCEACAM3 (R&D Systems, #9868-CM). The measurement was performed at 30° C. After hydration, pre-conditioning and a baseline step in Kinetic buffer (PBS, 0.002% Tween 20, 0.01% BSA, Kathon; Sartorius), biosensors were loaded for 5 min with the recombinant huCEACAM3 at 5 μg/mL in Kinetic buffer. […] The association and dissociation phases were monitored for 60 seconds and 120 seconds respectively. […]

[5] = molecular target: T1, human CEACAM5 on CEACAM5-expressing …; experiment: flow cytometry on Ls174T cells (carry CEACAM5 and CD47), PE anti-human IgG Fc
Experimental: as §1, §2

Row | EC50 [1] [nM] | Emax (MFI) [1] [MFI] | EC50 [2] [nM] | Emax (MFI) [2] [MFI] | EC50 [3] [nM] | Emax (MFI) [3] [MFI] | Fold difference hCEACAM3/hCEACAM5 (ratio of KD) [4] [fold] | EC50 [5] [nM] | Emax (MFI) [5] [MFI] | Binder
1 | 7.3 | 1.52e+06 | 2.47 | 370000 | 8.7 | 1.27e+06 | 137 | 5.6 | 89000 | K2AC84 (bispecific antibody, human IgG1, kappa, lambda, Kappa-lambda body; also called CD47xCEACAM5 bispecific antibody K2AC84; AC84 (CEACAM5 arm)) heavy: not shown light 1: QSVLTQPPSVSAAPGQKVTISCSGSSSNIGIGLVSWYQQLPGTAPKLLIYNVNTRPSGIPDRFSGSKSGTSATLGITGLQTGDEADYYCGTWDFSYRVDFGGGTKLTVLGQPKAAPSVTLFPPSSEELQANKATLVCLISDFYPGAVTVAWKADSSPVKAGVETTTPSKQSNNKYAASSYLSLTPEQWKSHRSYSCQVTHEGSTVEKTVAPTECS light 2: not shown
2 | 21.3 | 1.16e+06 | 10.7 | 240000 | 19.3 | 670000 | 83 | 28 | 73000 | K2AC22 (bispecific antibody, human IgG1, kappa, lambda, Kappa-lambda body, human IgG1, one arm for CEACAM5 and one for CD47; comparison antibody from WO2019234576; also called state of the art bispecific CEAxCD47 antibody K2AC22; CD47xCEACAM5 bispecific antibody K2AC22) heavy: not shown light 1: QSVLTQPPSVSAAPGQKVTISCSGSSSNIANGIVSWYQQLPGTAPKLLIYFDNLRPSGIPDRFSGSKSGTSATLGITGLQTGDEADYYCGTWDFSYGIVFGGGTKLTVLGQPKAAPSVTLFPPSSEELQANKATLVCLISDFYPGAVTVAWKADSSPVKAGVETTTPSKQSNNKYAASSYLSLTPEQWKSHRSYSCQVTHEGSTVEKTVAPTECS light 2: not shown
3 | 8.7 | 1.3e+06 | 3.27 | 300000 | 8 | 1.1e+06 | 146 | 4.5 | 70000 | K2AC100 (bispecific antibody, human IgG1, kappa, lambda, Kappa-lambda body; also called CD47xCEACAM5 bispecific antibody K2AC100; AC100 (CEACAM5 arm)) heavy: not shown light 1: QSVLTQPPSVSAAPGQKVTISCSGSSSNIGYGLVSWYQQLPGTAPKLLIYNGNIRPSGIPDRFSGSKSGTSATLGITGLQTGDEADYYCGTWDFSYRVDFGGGTKLTVLGQPKAAPSVTLFPPSSEELQANKATLVCLISDFYPGAVTVAWKADSSPVKAGVETTTPSKQSNNKYAASSYLSLTPEQWKSHRSYSCQVTHEGSTVEKTVAPTECS light 2: not shown
